# Source: paper PMC6555819, “Comprehensive study of nuclear receptor DNA binding provides a revised framework for understanding receptor specificity”
# Numbering of substitutions follows the chain as printed.
# B1: NRC3_wobSeed44_DR1_A18G_o1 (dsDNA)
# DNA 1: GCTGAATGAGGTTAAAGGTCAGGGAACGTGGCGTCGGCGATTGACAGCGTAGAATGAAGG
# DNA 2: CCTTCATTCTACGCTGTCAATCGCCGACGCCACGTTCCCTGACCTTTAACCTCATTCAGC
# B2: NRC3_wobSeed31_DR1_A13C_o1 (dsDNA)
# DNA 1: GCTCATATAGGTCAAAGGTGAAAGTCGGTGTGGTAAGCGATTGACAGCGTAGAATGAAGG
# DNA 2: CCTTCATTCTACGCTGTCAATCGCTTACCACACCGACTTTCACCTTTGACCTATATGAGC
# B3: NRC3_wobSeed31_DR1_G20C_o1 (dsDNA)
# DNA 1: B2 DNA 1 with C13A, G20C
# DNA 2: B2 DNA 2 with C41G, G48T
# B4: NRC3_wobSeed49_DR2_C27T_o1 (dsDNA)
# DNA 1: GCCAAACTAGGTCAAGAGGTCAAAGTTCGCTTCCCGGCGATTGACAGCGTAGAATGAAGG
# DNA 2: CCTTCATTCTACGCTGTCAATCGCCGGGAAGCGAACTTTGACCTCTTGACCTAGTTTGGC
# B5: NRC3_wobSeed46_DR1_G21A_o1 (dsDNA)
# DNA 1: GCTTACCAAGGTGAAAGGTCATTGATGCACGCCTTGGCGATTGACAGCGTAGAATGAAGG
# DNA 2: CCTTCATTCTACGCTGTCAATCGCCAAGGCGTGCATCAATGACCTTTCACCTTGGTAAGC
# B6: NRC3_wobSeed39_DR1_A19T_o1 (dsDNA)
# DNA 1: GCCGAACTAGGTCAAAGGTCAGTGAAAGGCGACGTAGCGATTGACAGCGTAGAATGAAGG
# DNA 2: CCTTCATTCTACGCTGTCAATCGCTACGTCGCCTTTCACTGACCTTTGACCTAGTTCGGC
# B7: NRC3_wobSeed36_DR1_T20C_o1 (dsDNA)
# DNA 1: GCCCGACTGGGGCAAAGGTCACCATACTCAGTACGAGCGATTGACAGCGTAGAATGAAGG
# DNA 2: CCTTCATTCTACGCTGTCAATCGCTCGTACTGAGTATGGTGACCTTTGCCCCAGTCGGGC
# B8: NRC3_wobSeed89_DR3_T13C_o1 (dsDNA)
# DNA 1: GCCTATGTAGGTCAAGGGGGTCATTCAGTTTGAAAGGCGATTGACAGCGTAGAATGAAGG
# DNA 2: CCTTCATTCTACGCTGTCAATCGCCTTTCAAACTGAATGACCCCCTTGACCTACATAGGC
# B9: NRC3_wobSeed38_DR1_T16A_o1 (dsDNA)
# DNA 1: GCCCTGCTAGGTCAAAGGTCAGCTAAAGCAGCTCGCGCGATTGACAGCGTAGAATGAAGG
# DNA 2: CCTTCATTCTACGCTGTCAATCGCGCGAGCTGCTTTAGCTGACCTTTGACCTAGCAGGGC
# B10: NRC3_wobSeed121_DR5_G18A_o1 (dsDNA)
# DNA 1: GCCAAACTAGGTCACCGAAAGGTCAAAGTCCGCATGGCGATTGACAGCGTAGAATGAAGG
# DNA 2: CCTTCATTCTACGCTGTCAATCGCCATGCGGACTTTGACCTTTCGGTGACCTAGTTTGGC
# B11: NRC3_wobSeed32_DR1_A11G_o1 (dsDNA)
# DNA 1: GCTCTTGTAGGTCAAAGGTTAAGAAAGCCGAAGCCTGCGATTGACAGCGTAGAATGAAGG
# DNA 2: CCTTCATTCTACGCTGTCAATCGCAGGCTTCGGCTTTCTTAACCTTTGACCTACAAGAGC
# B12: NRC3_wobSeed26_DR1_T9C_o1 (dsDNA)
# DNA 1: GCTCTAGTCGGTCAAAGGTCACACACTCGAAATGCGGCGATTGACAGCGTAGAATGAAGG
# DNA 2: CCTTCATTCTACGCTGTCAATCGCCGCATTTCGAGTGTGTGACCTTTGACCGACTAGAGC
# B13: NRC3_wobSeed41_DR1_T13C_o1 (dsDNA)
# DNA 1: GCATATGTAGGTCAAGGGTCATTCAGGTTGGTTCGCGCGATTGACAGCGTAGAATGAAGG
# DNA 2: CCTTCATTCTACGCTGTCAATCGCGCGAACCAACCTGAATGACCCTTGACCTACATATGC
# B14: NRC3_wobSeed41_DR1_G16A_o1 (dsDNA)
# DNA 1: B13 DNA 1 with C13T, G16A
# DNA 2: B13 DNA 2 with C45T, G48A
# B15: NRC3_wobSeed73_DR3_C28T_o1 (dsDNA)
# DNA 1: GCCAAACTAGGTCACAGAGGTCAAAGTTCGTGCGTAGCGATTGACAGCGTAGAATGAAGG
# DNA 2: CCTTCATTCTACGCTGTCAATCGCTACGCACGAACTTTGACCTCTGTGACCTAGTTTGGC
# B16: NRC3_random_hg19_6_o1 (dsDNA)
# DNA 1: GCACTCAGAGAGTTGAAGTGATTTGCCCAAGACCACGCGATTGACAGCGTAGAATGAAGG
# DNA 2: CCTTCATTCTACGCTGTCAATCGCGTGGTCTTGGGCAAATCACTTCAACTCTCTGAGTGC
# B17: NRC3_random_hg19_307_o1 (dsDNA)
# DNA 1: GCATGTTAGAGCTCATGGAGAAGTGTCCTATGTGATGCGATTGACAGCGTAGAATGAAGG
# DNA 2: CCTTCATTCTACGCTGTCAATCGCATCACATAGGACACTTCTCCATGAGCTCTAACATGC
# B18: NRC3_random_hg19_59_o1 (dsDNA)
# DNA 1: GCCAGTTCAAGACCAGCCTGGCCAACATGGTGAAACGCGATTGACAGCGTAGAATGAAGG
# DNA 2: CCTTCATTCTACGCTGTCAATCGCGTTTCACCATGTTGGCCAGGCTGGTCTTGAACTGGC
# Molecular target: PPARa:RXRa (Homo sapiens, UniProt Q07869;P19793 full;full)
# Assay: no ligand; PBM; 270 nM : 90 nM RXRa; PBS pH 7.4, 2% milk, 0.02% Triton X-100, 1 mM DTT, BSA, 0.4 mg/ml salmon testes DNA
# Details: tags: GST kept;His cleaved; copies: 1;1; label: surface-attached array probe
# How it was run: (§1)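 Binding z-scores take random background probes as their reference. They come from custom Agilent 4×180K protein-binding microarrays incubated 1 h with ligand-free nuclear receptor dimers, with antibodies against each partner (one per run) detecting binding. Scanned fluorescence was regression-normalized.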
row,Binder,binding signal
1,B1,6.96 PBM z-score against 500 random probes
2,B2,6.9 PBM z-score against 500 random probes
3,B3,6.94 PBM z-score against 500 random probes
4,B4,6.92 PBM z-score against 500 random probes
5,B5,6.54 PBM z-score against 500 random probes
6,B6,7.58 PBM z-score against 500 random probes
7,B7,6.53 PBM z-score against 500 random probes
8,B8,6.84 PBM z-score against 500 random probes
9,B9,6.82 PBM z-score against 500 random probes
10,B10,6.77 PBM z-score against 500 random probes
11,B11,7.1 PBM z-score against 500 random probes
12,B12,6.91 PBM z-score against 500 random probes
13,B13,7.55 PBM z-score against 500 random probes
14,B14,7.09 PBM z-score against 500 random probes

# Molecular target: FXR:RXRa (Homo sapiens, UniProt Q96RI1;P19793 full;full)
# Assay: as above
# Details: tags: His kept;His cleaved; copies: 1;1; label: surface-attached array probe
# How it was run: as §1
row,Binder,binding signal
1,B4,7.82 PBM z-score against 500 random probes

# Molecular target: PXR:RXRa (Homo sapiens, UniProt O75469;P19793 full;full)
# Assay: as above
# Details: tags: His kept;His cleaved; copies: 1;1; label: surface-attached array probe
# How it was run: as §1
# Chain of PXR:RXRa (O75469 whole entry, chain 1 of 2): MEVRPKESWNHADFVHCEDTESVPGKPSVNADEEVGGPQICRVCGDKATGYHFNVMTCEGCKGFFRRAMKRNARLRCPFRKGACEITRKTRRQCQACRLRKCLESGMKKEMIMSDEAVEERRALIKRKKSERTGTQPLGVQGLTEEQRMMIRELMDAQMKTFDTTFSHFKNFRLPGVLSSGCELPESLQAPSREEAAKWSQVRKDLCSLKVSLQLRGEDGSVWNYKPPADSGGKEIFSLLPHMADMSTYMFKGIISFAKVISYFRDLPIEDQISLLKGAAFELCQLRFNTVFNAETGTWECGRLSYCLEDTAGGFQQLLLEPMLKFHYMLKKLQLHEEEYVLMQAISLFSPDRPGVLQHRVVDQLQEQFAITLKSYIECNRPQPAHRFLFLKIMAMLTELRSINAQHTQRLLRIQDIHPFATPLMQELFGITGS
# Chain of PXR:RXRa (P19793 whole entry, chain 2 of 2): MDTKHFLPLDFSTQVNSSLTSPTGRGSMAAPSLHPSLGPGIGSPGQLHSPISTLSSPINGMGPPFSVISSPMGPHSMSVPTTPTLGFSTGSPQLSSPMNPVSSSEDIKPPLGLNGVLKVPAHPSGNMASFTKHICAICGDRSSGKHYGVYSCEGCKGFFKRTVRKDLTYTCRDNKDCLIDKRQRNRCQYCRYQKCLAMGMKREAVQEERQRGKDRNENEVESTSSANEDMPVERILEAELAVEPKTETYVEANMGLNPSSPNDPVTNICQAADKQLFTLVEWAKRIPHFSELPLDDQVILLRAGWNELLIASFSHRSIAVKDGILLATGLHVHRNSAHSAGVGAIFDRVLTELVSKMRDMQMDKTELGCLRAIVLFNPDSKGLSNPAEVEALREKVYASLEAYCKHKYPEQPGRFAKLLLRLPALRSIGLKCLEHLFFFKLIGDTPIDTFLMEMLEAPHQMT
row,Binder,binding signal
1,B1,6.68 PBM z-score against 500 random probes
2,B4,6.88 PBM z-score against 500 random probes
3,B15,7.41 PBM z-score against 500 random probes
4,B6,6.52 PBM z-score against 500 random probes
5,B8,6.79 PBM z-score against 500 random probes
6,B9,6.86 PBM z-score against 500 random probes
7,B10,6.93 PBM z-score against 500 random probes
8,B13,6.6 PBM z-score against 500 random probes
9,B14,6.71 PBM z-score against 500 random probes

# Molecular target: VDR:RXRa (Homo sapiens, UniProt P11473;P19793 full;full)
# Assay: as above
# Details: tags: His kept;His cleaved; copies: 1;1; label: surface-attached array probe
# How it was run: as §1
row,Binder,binding signal
1,B4,6.55 PBM z-score against 500 random probes
2,B8,8.32 PBM z-score against 500 random probes
3,B13,6.57 PBM z-score against 500 random probes
4,B14,6.82 PBM z-score against 500 random probes
5,B16,-0.28 PBM z-score against 500 random probes

# Molecular target: RARg:RXRa (Homo sapiens, UniProt P13631;P19793 full;full)
# Assay: as above
# Details: tags: His kept;His cleaved; copies: 1;1; label: surface-attached array probe
# How it was run: as §1
# Chain of RARg:RXRa (P13631 whole entry, chain 1 of 2): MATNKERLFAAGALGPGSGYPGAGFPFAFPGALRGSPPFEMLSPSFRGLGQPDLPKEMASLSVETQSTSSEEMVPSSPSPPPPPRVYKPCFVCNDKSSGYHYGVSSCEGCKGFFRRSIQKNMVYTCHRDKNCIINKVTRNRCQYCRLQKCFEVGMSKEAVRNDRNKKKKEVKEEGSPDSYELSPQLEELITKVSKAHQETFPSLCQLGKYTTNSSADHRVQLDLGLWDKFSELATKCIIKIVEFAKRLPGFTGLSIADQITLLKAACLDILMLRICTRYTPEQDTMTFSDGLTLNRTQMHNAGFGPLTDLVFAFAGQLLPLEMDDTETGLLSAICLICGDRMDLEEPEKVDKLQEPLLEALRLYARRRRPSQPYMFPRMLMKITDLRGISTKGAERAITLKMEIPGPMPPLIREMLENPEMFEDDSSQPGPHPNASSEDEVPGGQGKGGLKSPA
# Chain of RARg:RXRa (P19793 whole entry, chain 2 of 2): as the sequence (P19793 whole entry, chain 2 of 2) above
row,Binder,binding signal
1,B6,8.09 PBM z-score against 500 random probes
2,B9,8.54 PBM z-score against 500 random probes
3,B12,8.36 PBM z-score against 500 random probes

# Molecular target: RARb:RXRa (Homo sapiens, UniProt P10826;P19793 full;full)
# Assay: as above
# Details: tags: His kept;His cleaved; copies: 1;1; label: surface-attached array probe
# How it was run: as §1
row,Binder,binding signal
1,B6,5.46 PBM z-score against 500 random probes
2,B9,5.62 PBM z-score against 500 random probes
3,B10,5.67 PBM z-score against 500 random probes

# Molecular target: RARa:RXRa (Homo sapiens, UniProt P10276;P19793 full;full)
# Assay: as above
# Details: tags: His kept;His cleaved; copies: 1;1; label: surface-attached array probe
# How it was run: as §1
# Chain of RARa:RXRa (P10276 whole entry, chain 1 of 2): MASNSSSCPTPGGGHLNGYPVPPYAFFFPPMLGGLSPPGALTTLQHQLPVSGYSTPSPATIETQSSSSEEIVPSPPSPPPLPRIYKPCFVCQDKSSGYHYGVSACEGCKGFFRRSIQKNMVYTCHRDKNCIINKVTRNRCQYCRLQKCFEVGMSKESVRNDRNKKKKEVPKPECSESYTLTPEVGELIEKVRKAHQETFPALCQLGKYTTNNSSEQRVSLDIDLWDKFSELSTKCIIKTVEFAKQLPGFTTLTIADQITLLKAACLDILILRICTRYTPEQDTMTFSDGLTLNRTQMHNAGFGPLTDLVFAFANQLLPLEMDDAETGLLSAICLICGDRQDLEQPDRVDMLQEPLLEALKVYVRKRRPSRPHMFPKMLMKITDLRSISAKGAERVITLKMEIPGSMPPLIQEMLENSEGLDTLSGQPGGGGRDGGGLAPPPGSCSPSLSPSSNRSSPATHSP
# Chain of RARa:RXRa (P19793 whole entry, chain 2 of 2): as the sequence (P19793 whole entry, chain 2 of 2) above
row,Binder,binding signal
1,B17,-0.77 PBM z-score against 500 random probes
2,B1,9.15 PBM z-score against 500 random probes
3,B2,7.84 PBM z-score against 500 random probes
4,B3,7.77 PBM z-score against 500 random probes
5,B4,8.47 PBM z-score against 500 random probes
6,B15,8.8 PBM z-score against 500 random probes
7,B5,8.37 PBM z-score against 500 random probes
8,B6,8.51 PBM z-score against 500 random probes
9,B7,7.41 PBM z-score against 500 random probes
10,B8,7.29 PBM z-score against 500 random probes
11,B9,8.86 PBM z-score against 500 random probes
12,B10,8.55 PBM z-score against 500 random probes
13,B11,8.25 PBM z-score against 500 random probes
14,B12,8.22 PBM z-score against 500 random probes
15,B13,7.96 PBM z-score against 500 random probes
16,B14,8.42 PBM z-score against 500 random probes
17,B18,-0 PBM z-score against 500 random probes
18,B16,0.23 PBM z-score against 500 random probes

# Molecular target: LXRb:RXRa (Homo sapiens, UniProt P55055;P19793 full;full)
# Assay: as above
# Details: tags: His kept;His cleaved; copies: 1;1; label: surface-attached array probe
# How it was run: as §1
row,Binder,binding signal
1,B17,-0.8 PBM z-score against 500 random probes
2,B8,6.92 PBM z-score against 500 random probes
3,B9,5.81 PBM z-score against 500 random probes
4,B10,6.47 PBM z-score against 500 random probes
5,B13,6.03 PBM z-score against 500 random probes
6,B14,5.91 PBM z-score against 500 random probes

# Molecular target: LXRa:RXRa (Homo sapiens, UniProt Q13133;P19793 full;full)
# Assay: as above
# Details: tags: His kept;His cleaved; copies: 1;1; label: surface-attached array probe
# How it was run: as §1
# Chain of LXRa:RXRa (Q13133 whole entry, chain 1 of 2): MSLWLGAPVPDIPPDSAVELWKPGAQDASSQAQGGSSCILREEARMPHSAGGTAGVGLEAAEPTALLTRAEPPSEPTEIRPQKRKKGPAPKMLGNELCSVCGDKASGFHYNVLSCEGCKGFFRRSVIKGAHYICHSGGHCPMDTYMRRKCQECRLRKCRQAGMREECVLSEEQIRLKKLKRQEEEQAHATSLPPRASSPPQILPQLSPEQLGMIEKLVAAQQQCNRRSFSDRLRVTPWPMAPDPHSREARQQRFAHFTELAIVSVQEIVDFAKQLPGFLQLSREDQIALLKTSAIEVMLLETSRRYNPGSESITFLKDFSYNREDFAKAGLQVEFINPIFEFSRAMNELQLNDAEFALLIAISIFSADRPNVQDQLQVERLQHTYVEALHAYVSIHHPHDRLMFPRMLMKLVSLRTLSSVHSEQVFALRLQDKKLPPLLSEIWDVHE
# Chain of LXRa:RXRa (P19793 whole entry, chain 2 of 2): as the sequence (P19793 whole entry, chain 2 of 2) above
row,Binder,binding signal
1,B10,6.91 PBM z-score against 500 random probes
2,B12,6.67 PBM z-score against 500 random probes
3,B18,0.49 PBM z-score against 500 random probes

# Molecular target: RXRa (Homo sapiens, UniProt P19793)
# Assay: no ligand; PBM; 180 nM; PBS pH 7.4, 2% milk, 0.02% Triton X-100, 1 mM DTT, BSA, 0.4 mg/ml salmon testes DNA
# Details: tags: His cleaved; chain copies: 2; label: surface-attached array probe
row,Binder,binding signal
1,B1,9.53 PBM z-score against 500 random probes
2,B2,8.68 PBM z-score against 500 random probes
3,B3,8.7 PBM z-score against 500 random probes
4,B15,8.65 PBM z-score against 500 random probes
5,B5,8.42 PBM z-score against 500 random probes
6,B6,9.27 PBM z-score against 500 random probes
7,B7,8.25 PBM z-score against 500 random probes
8,B9,10 PBM z-score against 500 random probes
9,B11,9.29 PBM z-score against 500 random probes
10,B12,8.95 PBM z-score against 500 random probes
11,B13,9.04 PBM z-score against 500 random probes
12,B14,9.21 PBM z-score against 500 random probes

# Molecular target: PPARg:RXRa (Homo sapiens, UniProt P37231;P19793 full;full)
# Assay: no ligand; PBM; 180 nM : 90 nM RXRa; PBS pH 7.4, 2% milk, 0.02% Triton X-100, 1 mM DTT, BSA, 0.4 mg/ml salmon testes DNA
# Details: tags: His kept;His cleaved; copies: 1;1; label: surface-attached array probe
# Chain of PPARg:RXRa (P37231 29-505, chain 1 of 2): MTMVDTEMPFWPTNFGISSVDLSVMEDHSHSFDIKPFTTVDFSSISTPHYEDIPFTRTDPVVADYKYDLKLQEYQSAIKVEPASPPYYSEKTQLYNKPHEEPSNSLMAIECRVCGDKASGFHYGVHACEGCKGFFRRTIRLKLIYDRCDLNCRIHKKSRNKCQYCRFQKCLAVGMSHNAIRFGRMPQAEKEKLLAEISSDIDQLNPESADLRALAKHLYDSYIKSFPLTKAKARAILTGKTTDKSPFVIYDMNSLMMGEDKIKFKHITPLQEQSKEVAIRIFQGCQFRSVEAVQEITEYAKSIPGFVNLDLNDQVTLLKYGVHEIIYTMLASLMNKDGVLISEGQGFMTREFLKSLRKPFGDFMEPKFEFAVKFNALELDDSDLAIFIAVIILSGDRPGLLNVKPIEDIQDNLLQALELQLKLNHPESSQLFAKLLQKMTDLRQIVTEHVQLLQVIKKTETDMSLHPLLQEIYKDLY
# Chain of PPARg:RXRa (P19793 whole entry, chain 2 of 2): as the sequence (P19793 whole entry, chain 2 of 2) above
row,Binder,binding signal
1,B17,0.17 PBM z-score against 500 random probes
2,B1,11.9 PBM z-score against 500 random probes
3,B2,11.9 PBM z-score against 500 random probes
4,B3,11.8 PBM z-score against 500 random probes
5,B4,11 PBM z-score against 500 random probes
6,B15,10.8 PBM z-score against 500 random probes
7,B5,10.9 PBM z-score against 500 random probes
8,B6,14 PBM z-score against 500 random probes
9,B7,12.5 PBM z-score against 500 random probes
10,B8,11.1 PBM z-score against 500 random probes
11,B9,12.7 PBM z-score against 500 random probes
12,B10,10.5 PBM z-score against 500 random probes
13,B11,12.7 PBM z-score against 500 random probes
14,B12,12.4 PBM z-score against 500 random probes
15,B13,13.1 PBM z-score against 500 random probes
16,B14,13.4 PBM z-score against 500 random probes
17,B18,0.03 PBM z-score against 500 random probes
18,B16,0.15 PBM z-score against 500 random probes
